Each block holds one binder with its values, some of them ahead of it.
What was measured:
mouse METAP1(1-59) = mouse METAP1(1-59) (mouse, UniProt Q8BP48 1-59); assay: other fluorescence titration
mouse METAP1(1-79) = mouse METAP1(1-79) (mouse, UniProt Q8BP48 1-79); assay: other fluorescence titration
[1] = biological target: zebrafish MBP-Metap1, full length (zebrafish, UniProt Q4QRK0 1-386); assay: pull-down

Kd (mouse METAP1(1-59)): ~0.1 µM | stoichiometry N (mouse METAP1(1-59)): 1 | Kd (mouse METAP1(1-79)): ~0.1 µM | stoichiometry N (mouse METAP1(1-79)): 1
Binder: Ac-MEDEDECPELVPIKEKPSG-NH2 [zebrafish Zng1 N-terminal peptide, synthetic]

Kd (mouse METAP1(1-59)): ~0.1 µM | stoichiometry N (mouse METAP1(1-59)): 1 | Kd (mouse METAP1(1-79)): ~0.1 µM | stoichiometry N (mouse METAP1(1-79)): 1
Binder: Ac-EEDPAEEDCPELVPIETTQSE-NH2 [human ZNG1 N-terminal peptide, synthetic]

binding result [1]: binds
B1: zebrafish Zng1, full length, purified (natural protein)
chain: not shown

Source: paper PMC9189065 (Cell, 2022)
